# Publication PMC4768490 (Structure (London, England : 1993), 2015)
# T1: Kap60 lacking the IBB (ΔIBB-Kap60) (S. cerevisiae, UniProt Q02821 88-509)
# T1 sequence: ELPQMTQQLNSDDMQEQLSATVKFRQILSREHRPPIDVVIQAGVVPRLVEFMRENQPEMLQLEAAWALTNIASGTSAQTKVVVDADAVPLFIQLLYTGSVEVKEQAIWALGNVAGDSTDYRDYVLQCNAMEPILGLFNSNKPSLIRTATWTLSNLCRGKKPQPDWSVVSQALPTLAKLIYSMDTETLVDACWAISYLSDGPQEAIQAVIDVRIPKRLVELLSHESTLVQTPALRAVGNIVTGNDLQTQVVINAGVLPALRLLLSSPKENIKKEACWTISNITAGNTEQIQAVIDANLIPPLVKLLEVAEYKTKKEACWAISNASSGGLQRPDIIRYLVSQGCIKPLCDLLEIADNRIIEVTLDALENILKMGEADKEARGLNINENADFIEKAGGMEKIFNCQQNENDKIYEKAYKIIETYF
# Molecular target: T1, Kap60 lacking the IBB (ΔIBB-Kap60)
# Assay: pull-down
row,percent of the ΔIBB-Kap60:h2NLS complex dissociated at 10-fold excess of Nup2,Molecule
1,60%,"MBP-Nup2 (res. 1-51) (domain or fragment, S. cerevisiae, UniProt P32499 1-51, looked up) MAKRVADAQIQRETYDSNESDDDVTPSTKVASSAVMNRRKIAMPKRRMAFK"

# Molecular target: T1, Kap60 lacking the IBB (ΔIBB-Kap60)
# Assay: ITC
row,Molecule,Kd
1,"TNKRKREQISTDNEAKMQIQEEKSPKKKRKKRSSKANK (peptide, UniProt Q03281 100-137, looked up) [MBP-tagged h2NLS (MBP-h2NLS), wild type]",27.3 ± 8 nM
2,"TNKAKREQISTDNEAKMQIQEEKSPKAKRKKRSSKANK (peptide, UniProt Q03281 100-137, looked up) [MBP-h2NLS with Ala-mutations at positions P2' and P2 (R103A, K126A)]",168 ± 32 nM
3,"TNKAKREQISTDNEAKMQIQEEKSPKKKRKKRSSKANK (peptide, UniProt Q03281 100-137, looked up) [MBP-h2NLS with Ala-mutation at position P2' (R103A)]",132 ± 27 nM
4,"MBP-tagged h1NLS (MBP-h1NLS), wild type (peptide, UniProt Q03707 171-221, looked up) DTRKKRKDPDSDDWSESNSKENKIDNKHLNLLSSDSEIEQDYQKAKKRKTS",30.5 ± 10 nM
5,"MBP-h1NLS with Ala-mutations at positions P2' and P2 (R176A, K190A) (peptide, UniProt Q03707 171-221, looked up) DTRKKAKDPDSDDWSESNSAENKIDNKHLNLLSSDSEIEQDYQKAKKRKTS",140 ± 26 nM

# Next, values leading:
row,Kd,Molecule
1,123 ± 8.6 nM,"MBP-h1NLS with Ala-mutation at position P2' (R176A) (peptide, UniProt Q03707 171-221, looked up) DTRKKAKDPDSDDWSESNSKENKIDNKHLNLLSSDSEIEQDYQKAKKRKTS"
2,106 ± 15 nM,"TNKRKREQISTDNEAKMQIQEEKSPKAKRKKRSSKANK (peptide, UniProt Q03281 100-137, looked up) [MBP-h2NLS with Ala-mutation at position P2 (K126A)]"
3,68.6 ± 14 nM,"MBP-h1NLS with Ala-mutation at position P2 (K190A) (peptide, UniProt Q03707 171-221, looked up) DTRKKRKDPDSDDWSESNSAENKIDNKHLNLLSSDSEIEQDYQKAKKRKTS"

# Molecular target: Kap60 lacking the IBB (ΔIBB-Kap60) (S. cerevisiae) (UniProt Q02821)
# Assay: ITC
row,Kd,Molecule
1,46 nM,"nucleoplasmin bipartite NLS (NP-NLS), control (peptide)"
